Test results from patent US20210340211A1 (UNIVERSITY OF COPENHAGEN, published 2021).
Ends that are not written are not given here.

Assays:
human GIP receptor [1] = target: T1, human GIP receptor (human, UniProt P48546 22-466); assay: cell-based or functional assay
T1 sequence (looked up): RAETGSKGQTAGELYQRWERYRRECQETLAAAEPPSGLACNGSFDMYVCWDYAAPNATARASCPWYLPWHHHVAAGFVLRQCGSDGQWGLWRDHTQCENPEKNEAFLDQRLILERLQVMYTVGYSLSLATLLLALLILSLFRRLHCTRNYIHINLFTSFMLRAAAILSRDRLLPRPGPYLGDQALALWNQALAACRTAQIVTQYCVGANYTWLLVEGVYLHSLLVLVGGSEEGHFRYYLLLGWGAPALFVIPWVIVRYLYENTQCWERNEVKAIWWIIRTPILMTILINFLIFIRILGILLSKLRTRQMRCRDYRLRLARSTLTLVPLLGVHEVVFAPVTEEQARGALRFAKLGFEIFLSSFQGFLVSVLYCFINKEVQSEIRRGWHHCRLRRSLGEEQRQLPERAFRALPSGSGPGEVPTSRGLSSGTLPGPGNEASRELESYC

human GIP receptor [2] = target: T1, human GIP receptor; assay: competition binding vs 125I-GIP(1-42), COS-7 cells transfected with human GIP receptor
Experimental: (§1) Nonspecific binding was determined as the binding of radioligand to untransfected cells. All determinations were made in duplicates, and all experiments repeated at least three times. The samples were analyzed for radioactivity using a Wallac Wizard 1470 Gamma Counter (GMI Inc., Minnesota, USA). The number “n” refers to individual experiments with separate transfections although from same cell line.
(§2) Statistical analyses (unpaired t-tests) of two parameters were also performed with GraphPad Prism 6.0. […] Kd is the dissociation constant determined by homologous receptor binding.

human GIP receptor [3] = target: T1, human GIP receptor; assay: competition binding vs 125I-hGIP, COS-7 cells transfected with hGIPR
Experimental: COS-7 cells were seeded in clear 96-well plates the day after transfection using a number of cells/well that obtained 5-10% specific binding of the added radioactive ligand. […] After incubation, the cells were washed twice in ice-cold binding buffer and lysed using 200 mM NaOH with 1% SDS for 30 min. Nonspecific binding was determined as the binding of tracer to untransfected cells.

human GIP receptor [4] = target: T1, human GIP receptor; assay: cell-based or functional assay; remark: listed apart in the source
human GIP receptor [5] = target: T1, human GIP receptor; assay: cell-based or functional assay; remark: listed apart in the source
human GIP receptor [6] = target: T1, human GIP receptor; assay: competition binding vs 125I-GIP(2-30)NH2, COS-7 cells transfected with human GIP receptor
Experimental: as §1, §2

human GIP receptor [7] = target: T1, human GIP receptor; assay: competition binding vs 125I-GIP(3-30)NH2, COS-7 cells transfected with human GIP receptor
Experimental: as §1, §2

human GIP receptor [8] = target: T1, human GIP receptor; assay: competition binding vs 125I-GIP(1-30)NH2, COS-7 cells transfected with human GIP receptor
Experimental: as §1, §2

human GIP receptor [9] = target: T1, human GIP receptor; assay: homologous competition binding vs 125I-GIP(2-30)NH2, COS-7 cells transfected with human GIP receptor
Experimental: as §1

human GIP receptor [10] = target: T1, human GIP receptor; assay: homologous competition binding vs 125I-GIP(3-30)NH2, COS-7 cells transfected with human GIP receptor
Experimental: as §1

Row | Binder | logIC (human GIP receptor [2]) | Ki (Schild plot, cAMP accumulation) (human GIP receptor [4]) | Ki (human GIP receptor [2]) | fold change of GIP(1-30)NH2 affinity (human GIP receptor [2]) | IC50 (inhibition of GIP(1-42) induced cAMP accumulation) (human GIP receptor [5]) | logIC50 (inhibition of GIP(1-42) induced cAMP accumulation) (human GIP receptor [5]) | further results
1 | EGTFISDYSIAMDKIHQQDFVNWLLAQKGKKNDWKHNITQ [human GIP(3-42)] |  |  |  |  |  |  | fold lower antagonistic potency than human GIP(3-30)NH2 (cAMP accumulation) (human GIP receptor [1]): 26 fold; fold shift in the dose-response curve of human GIP(1-42) by 1 µM antagonist (human GIP receptor [1]): 7.3 fold
2 | ISDYSIAMDKIHQQDFVNWLLAQK-NH2 (also called human GIP(7-30)NH2; hGIP(7-30)) [GIP(7-30)NH2] | -7.58 |  |  |  |  |  | 
3 | EGTFISDYSIAMDKIHQQDFVNWLLAQK (also called human GIP3-30) [hGIP(3-30)] |  | 15 nM |  |  |  |  | IC50 (human GIP receptor [3]): 16 nM
4 | EGTFISDYSIAMDKIAQQDFVNWLLAQK (Synthetic variant of hGIP(3-30)) [hGIP(3-30)H18A] |  | 35 nM |  |  |  |  | IC50 (human GIP receptor [3]): 2 nM
5 | EGTFISDYSIAMDKIKQQDFVNWLLAQK (Synthetic variant of hGIP(3-30)) [hGIP(3-30)H18K] |  | 37 nM |  |  |  |  | IC50 (human GIP receptor [3]): 7.8 nM
6 | DYSIAMDKIHQQDFVNWLLAQK-NH2 (also called human GIP(9-30)NH2; hGIP(9-30)) [GIP(9-30)NH2] | -6.51 |  | 307 nM | 345 fold | 450 nM | -6.35 | fold lower affinity compared to GIP(1-30)NH2 (human GIP receptor [2]): > 300 fold; right-shift of antagonistic potency compared to GIP(3-30)NH2 (human GIP receptor [1]): 38 fold
7 | GTFISDYSIAMDKIHQQDFVNWLLAQK-NH2 (also called human GIP(4-30)NH2; hGIP4-30) [GIP(4-30)NH2] | -7.67 |  | 21.5 nM | 24 fold | 108 nM | -6.97 | 
8 | FISDYSIAMDKIHQQDFVNWLLAQK-NH2 (also called human GIP(6-30)NH2; hGIP(6-30)) [GIP(6-30)NH2] | -6.46 |  | 347 nM | 391 fold | 342 nM | -6.47 | IC50 (human GIP receptor [6]): 340 nM; fold change GIP(1-30)NH2 (human GIP receptor [6]): 707 fold; log (IC50) (human GIP receptor [6]): -6.47; IC50 (human GIP receptor [7]): 370 nM; fold change GIP(1-30)NH2 (human GIP receptor [7]): 223 fold; log (IC50) (human GIP receptor [7]): -6.43; fold decrease in affinity compared to GIP(1-30)NH2 (human GIP receptor [2]): 347 fold; fold lower affinity compared to GIP(1-30)NH2 (human GIP receptor [2]): > 300 fold; IC50 (human GIP receptor [8]): 1060 nM; fold change GIP(1-30)NH2 (human GIP receptor [8]): 3500 fold; log (IC50) (human GIP receptor [8]): -5.97
9 | EGTFISDYSIAMEKIAQQDFVNWLLAQK [hGIP(3-30)D15EH18A] |  | 7.9 nM |  |  |  |  | 
10 | AEGTFISDYSIAMDKIHQQDFVNWLLAQK-NH2 (also called human GIP(2-30)NH2; hGIP(2-30)) [GIP(2-30)NH2] | -7.85 |  | 14.3 nM | 16 fold | 21.7 nM | -7.66 | IC50 (human GIP receptor [9]): 2.7 nM; fold change GIP(1-30)NH2 (human GIP receptor [9]): 10.5 fold; log (IC50) (human GIP receptor [9]): -8.57; IC50 (human GIP receptor [7]): 7.7 nM; fold change GIP(1-30)NH2 (human GIP receptor [7]): 4.6 fold; log (IC50) (human GIP receptor [7]): -8.11; IC50 (human GIP receptor [8]): 26 nM; fold change GIP(1-30)NH2 (human GIP receptor [8]): 84.3 fold; log (IC50) (human GIP receptor [8]): -7.59; fold lower potency than GIP(1-30)NH2 (cAMP accumulation) (human GIP receptor [1]): > 3000 fold; log EC50 (cAMP accumulation) (human GIP receptor [1]): -8.43; potency, EC50 (cAMP accumulation) (human GIP receptor [1]): 3.7 nM
11 | EGTFISDYSIAMDAIAQQDFVNWLLAQK [hGIP(3-30)K16AH18A] |  | 15 nM |  |  |  |  | 
12 | EGTFISDYSIAMDKIHQQDFVNWLLAQK-NH2 (also called human GIP(3-30)NH2; hGIP(3-30)NH2) [GIP(3-30)NH2] | -8.63 |  | 2.3 nM | 2.6 fold | 11.8 nM | -7.93 | IC50 (human GIP receptor [6]): 0.76 nM; fold change GIP(1-30)NH2 (human GIP receptor [6]): 1.6 fold; log (IC50) (human GIP receptor [6]): -9.12; IC50 (human GIP receptor [10]): 3.4 nM; fold change GIP(1-30)NH2 (human GIP receptor [10]): 2 fold; log (IC50) (human GIP receptor [10]): -8.47; fold decrease in affinity compared to GIP(1-30)NH2 (human GIP receptor [2]): 2.3 fold; IC50 (human GIP receptor [8]): 4.4 nM; fold change GIP(1-30)NH2 (human GIP receptor [8]): 14.5 fold; log (IC50) (human GIP receptor [8]): -8.35; fold shift in the dose-response curve of human GIP(1-42) by 1 µM antagonist (human GIP receptor [1]): 281 fold
13 | TFISDYSIAMDKIHQQDFVNWLLAQK-NH2 (also called human GIP(5-30)NH2; hGIP5-30) [GIP(5-30)NH2] | -8.23 |  | 5.9 nM | 6.6 fold | 11.9 nM | -7.92 | 
14 | SDYSIAMDKIHQQDFVNWLLAQK-NH2 (also called human GIP(8-30)NH2; hGIP(8-30)) [GIP(8-30)NH2] | -7.1 |  | 79 nM | 89 fold | 133 nM | -6.88 | 
